Laboratory results from paper PMC3973309.
Numbering of substitutions follows the chain as printed.

T1: BfiI-C (C-terminal DNA-binding domain) (UniProt Q9F4C9 193-358)
T1 sequence: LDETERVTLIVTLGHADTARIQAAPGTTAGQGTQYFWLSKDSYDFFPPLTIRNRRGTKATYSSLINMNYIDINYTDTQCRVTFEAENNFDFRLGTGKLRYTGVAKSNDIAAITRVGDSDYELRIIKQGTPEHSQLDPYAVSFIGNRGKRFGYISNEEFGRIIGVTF

T2: BfiI W229A (UniProt Q9F4C9 1-358, W229A)
T2 sequence: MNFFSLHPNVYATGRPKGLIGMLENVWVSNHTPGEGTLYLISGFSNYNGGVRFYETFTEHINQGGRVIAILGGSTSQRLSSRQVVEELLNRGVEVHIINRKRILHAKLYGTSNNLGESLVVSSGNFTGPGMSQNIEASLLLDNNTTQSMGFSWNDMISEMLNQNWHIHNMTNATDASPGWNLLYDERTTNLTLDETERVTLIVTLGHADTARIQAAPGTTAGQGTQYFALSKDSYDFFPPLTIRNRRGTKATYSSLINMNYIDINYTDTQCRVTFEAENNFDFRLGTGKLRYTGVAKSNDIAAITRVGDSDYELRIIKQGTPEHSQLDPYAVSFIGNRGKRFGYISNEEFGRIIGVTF

T3: BfiI R291A (UniProt Q9F4C9 1-358, R291A)
T3 sequence: T2 sequence with A229W, R291A

T4: BfiI Y227A (UniProt Q9F4C9 1-358, Y227A)
T4 sequence: T2 sequence with Y227A, A229W

T5: BfiI E276A (UniProt Q9F4C9 1-358, E276A)
T5 sequence: T2 sequence with A229W, E276A

T6: BfiI R212A (UniProt Q9F4C9 1-358, R212A)
T6 sequence: T2 sequence with R212A, A229W

T7: BfiI T225A (UniProt Q9F4C9 1-358, T225A)
T7 sequence: T2 sequence with T225A, A229W

T8: BfiI R272A (UniProt Q9F4C9 1-358, R272A)
T8 sequence: T2 sequence with A229W, R272A

T9: BfiI Q223A (UniProt Q9F4C9 1-358, Q223A)
T9 sequence: T2 sequence with Q223A, A229W

T10: BfiI N245A (UniProt Q9F4C9 1-358, N245A)
T10 sequence: T2 sequence with A229W, N245A

T11: BfiI K250A (UniProt Q9F4C9 1-358, K250A)
T11 sequence: T2 sequence with A229W, K250A

T12: BfiI Q226A (UniProt Q9F4C9 1-358, Q226A)
T12 sequence: T2 sequence with Q226A, A229W

B1: 12/12 (dsDNA)
DNA 1: AGCACTGGGTCG
DNA 2: CGACCCAGTGCT
B2: 16SP (dsDNA)
DNA 1: AGCGTAGCACTGGGCT
DNA 2: AGCCCAGTGCTACGCT

Assays:
[1] = target: T1, BfiI-C (C-terminal DNA-binding domain); assay: X-ray crystallography
BfiI W229A = target: T2, BfiI W229A; assay: EMSA
BfiI R291A = target: T3, BfiI R291A; assay: EMSA
BfiI Y227A = target: T4, BfiI Y227A; assay: EMSA
BfiI E276A = target: T5, BfiI E276A; assay: EMSA
BfiI R212A = target: T6, BfiI R212A; assay: EMSA
BfiI T225A = target: T7, BfiI T225A; assay: EMSA
BfiI R272A = target: T8, BfiI R272A; assay: EMSA
BfiI Q223A = target: T9, BfiI Q223A; assay: EMSA
BfiI N245A = target: T10, BfiI N245A; assay: EMSA
BfiI K250A = target: T11, BfiI K250A; assay: EMSA
BfiI Q226A = target: T12, BfiI Q226A; assay: EMSA

| Binder | binding result [1] | binding signal (BfiI W229A) | binding signal (BfiI R291A) | binding signal (BfiI Y227A) | binding signal (BfiI E276A) | binding signal (BfiI R212A) | binding signal (BfiI T225A) | binding signal (BfiI R272A) | binding signal (BfiI Q223A) | binding signal (BfiI N245A) | binding signal (BfiI K250A) | binding signal (BfiI Q226A) |
| --- | --- | --- | --- | --- | --- | --- | --- | --- | --- | --- | --- | --- |
| B1 | binds |  |  |  |  |  |  |  |  |  |  |  |
| B2 |  | 1 % of WT KA | 2 % of WT KA | 5 % of WT KA | 10 % of WT KA | 2 % of WT KA | 10 % of WT KA | 1 % of WT KA | 100 % of WT KA | 100 % of WT KA | 2 % of WT KA | 50 % of WT KA |
